Test results as given in US11110182B2, “Multifunctional RNA nanoparticles and methods for treating cancer and therapeutic resistant cancer” (University of Cincinnati, priority 2016, dated 2021).

Assay: Tm value by temperature gradient gel electrophoresis (TGGE) assay
Type: physicochemical
Procedure: Cell culture. Human breast cancer luciferase-overexpressing BT474 and MDA-MB-231 cells were maintained in DMEM medium (Hyclone, Thermo Scientific) supplemented with 10% fetal bovine serum (FBS, Sigma) and 1% penicillin/streptomycin (Corning) at 37° C. in a humidified atmosphere with 5% CO2.^53 • Generation of pRNA nanoparticles. The two strands of pRNA were synthesized with the DNA templates, which were amplified with overlapping primers (Sigma) by PCR methods, using a T7 promoter-controlled in vitro RNA transcription system as previously described^33 (Table 1). […] The hydrodynamic diameter and Tm value of pRNA nanoparticles were determined using dynamic light scattering and TGGE assay, respectively, as previously described.^54 The AFM imaging of the pRNA nanoparticles was performed at the University of Nebraska Medical Center imaging facility as previously reported.^55 Briefly, the pRNA nanoparticles (5 μL) were deposited on APS modified mica ^56 for a total of 2 min of incubation time. […] After washing three times with PBS, the cellular uptake of pRNAs was determined using a BD LSRFortessa™ flow cytometer. • Real-time PCR. […] The expression of MED 1, TFF1, c-Myc, cyclinD1 and MMP-9 was analyzed using GAPDH as the internal reference. • Western blot analyses. […]

B1: pRNA-HER2apt-siMED1: 3-WJ pRNA nanoparticle bearing a HER2-targeting RNA aptamer and two different MED1 siRNAs; strands p1 SEQ ID NO: 3, p2 SEQ ID NO: 4 (nucleic acid)
chain 1: GGACAGUGAAAGUGAGUCAAAGGAUCAAUCAUGGCCAAAGAUGUUACUUUGAGAGCCUU
chain 2: GGCUCUCAAAGUAACAUCUAAGGCCAUGUGUAUGUGGGGGGAGGACGAUGCGGUCUGCUGUGCUUGAUAUGCCCCAGACGACUCGCCCCCCACAUACUUUGUUGAUCCAAUGACUCACUUUCACUGUCCUU
modifications: 2'-F modification; third strand may lack entry; pRNA-HER2apt-siMED1, p1; pRNA-HER2apt-siMED1, p2
Tm value: 78±2 °C
